Consider 35 sequences from the Immune Epitope Database (IEDB).

pKd: −log10 of the molar value. A value given as a limit tells only on which side of the number the result lay.

Assay [1] concerns the target HLA-B*35:01. Description: IEDB peptide-MHC binding, purified MHC/competitive/radioactivity; filed as Kd, often an IC50 or EC50 that approximates it; ≥ and ≤ were set here for values at or beyond the usual limits of such assays.
Assay [2] addresses HLA-B*51:01. The experiment in a line: IEDB peptide-MHC binding, purified MHC/competitive/fluorescence; filed as Kd, often an IC50 or EC50 that approximates it; ≥ and ≤ were set here for values at or beyond the usual limits of such assays.
The target of assay [3] is HLA-A*30:02. The experiment in a line: IEDB peptide-MHC binding, purified MHC/competitive/radioactivity; filed as Kd, often an IC50 or EC50 that approximates it; ≥ and ≤ were set here for values at or beyond the usual limits of such assays.
For assay [4], the target named is HLA-A*01:01. Described as above.
Assay [5] addresses HLA-A*26:01. The description is as above.
Assay [6] concerns the target HLA-A*32:01. Described as above.
Assay [7] concerns the target HLA-A*23:01. Described as above.
The target of assay [8] is HLA-A*29:02. The assay is described as above.
Assay [9] has as its target HLA-A*30:01. Described as above.
For assay [10], the target named is HLA-A*24:02. The assay is described as above.
Assay [11] addresses HLA-A*69:01. Description: IEDB peptide-MHC binding, purified MHC/direct/fluorescence; filed as Kd, often an IC50 or EC50 that approximates it; ≥ and ≤ were set here for values at or beyond the usual limits of such assays.
Assay [12] concerns the target HLA-B*44:02. The description is as above.
The target of assay [13] is HLA-B*07:02. The description is as above.
The target of assay [14] is HLA-B*27:05. Described as above.
The target of assay [15] is HLA-A*01:01. Described as above.
In assay [16] the target is HLA-A*26:01. The description is as above.
The target of assay [17] is HLA-B*58:01. The assay is described as above.
For assay [18], the target named is HLA-A*02:01. Described as above.
Assay [19] has as its target HLA-B*40:01. Described as above.
Assay [20] has as its target HLA-B*15:01. The assay is described as above.
The target in assay [21] is HLA-A*31:01. The description is as above.
The target in assay [22] is HLA-B*08:01. The assay is described as above.
For assay [23], the target named is HLA-A*11:01. The description is as above.
The target of assay [24] is HLA-A*03:01. The assay is described as above.
Assay [25] concerns the target HLA-B*53:01. The experiment in a line: IEDB peptide-MHC binding, purified MHC/competitive/radioactivity; filed as Kd, often an IC50 or EC50 that approximates it; ≥ and ≤ were set here for values at or beyond the usual limits of such assays.
For assay [26], the target named is HLA-B*15:01. The description is as above.
In assay [27] the target is HLA-A*24:03. The experiment in a line: IEDB peptide-MHC binding, purified MHC/direct/fluorescence; filed as Kd, often an IC50 or EC50 that approximates it; ≥ and ≤ were set here for values at or beyond the usual limits of such assays.
The target in assay [28] is HLA-B*07:02. Description: IEDB peptide-MHC binding, purified MHC/competitive/radioactivity; filed as Kd, often an IC50 or EC50 that approximates it; ≥ and ≤ were set here for values at or beyond the usual limits of such assays.
Assay [29] deals with HLA-B*51:01. The description is as above.
Assay [30] has as its target HLA-A*26:01. The experiment in a line: IEDB peptide-MHC binding, purified MHC/competitive/fluorescence; filed as Kd, often an IC50 or EC50 that approximates it; ≥ and ≤ were set here for values at or beyond the usual limits of such assays. The note with it: source organism: Bacillus anthracis str. A0488.
Setting [31] is: source organism: Dengue virus 3 Martinique/1243/1999.
Setting [32] is: source organism: Mammarenavirus machupoense.
Where [33] appears, read: source organism: Vibrio parahaemolyticus.
[34] abbreviates: source organism: Dengue virus 2 Jamaica/1409/1983.
[35] abbreviates: source organism: Dengue virus 4 Philippines/H241/1956.
Setting [36] is: source organism: Dengue virus 1 Singapore/S275/1990.
The mark [37] stands for this setting: source organism: Campylobacter jejuni RM1221.
Setting [38] is: source organism: Lymphocytic choriomeningitis virus (strain Armstrong).
Setting [39] is: source organism: Dengue virus 1 Brazil/97-11/1997.
Where [40] appears, read: source organism: Dengue virus 3 Sri Lanka/1266/2000.
[41] abbreviates: source organism: Dengue virus 4 Dominica/814669/1981.
Setting [42] is: source organism: Shigella flexneri.

Turning to APTRVVAAEM, the pKd in assay [1] (setting [31]) is 7.69.

CPLNQLEQF: in assay [2] (source organism: Entamoeba histolytica HM-1:IMSS), the pKd was ≤ 4.70.

Regarding CTNFKTQLV, the pKd in assay [3] (setting [32]) is 5.64; in assay [4] (setting [32]), 5.94; in [5] (setting [32]) it was 4.88; in [6] (setting [32]), ≤ 4.11; in assay [7] (setting [32]), ≤ 4.11; in [8] (setting [32]), 5.35. The results for the pKd in [9] (setting [32]) and in assay [10] (setting [32]) were 5.98 and ≤ 4.11, respectively.

As to EEDLPVTWR, the pKd in [11] (setting [33]), in [12] (setting [33]), in [13] (setting [33]), in [14] (setting [33]), in assay [15] (setting [33]) and in [16] (setting [33]) was ≤ 4.70 in each case. Besides, the pKd in assay [17] (setting [33]), in assay [18] (setting [33]), in [19] (setting [33]), in assay [20] (setting [33]), in [21] (setting [33]) and in assay [22] (setting [33]) was ≤ 4.70 throughout. Besides, the pKd in [23] (setting [33]) and in assay [24] (setting [33]) was ≤ 4.70 in each case.

Turning to EPKEGTKKLM, the pKd in assay [1] (setting [34]) is ≤ 4.26.

Regarding EPWLKNNQF, the figures for the pKd in assay [1] (setting [31]) and in assay [25] (setting [31]) were 5.99 and 5.59, respectively.

Take FALLAGFMAY: the pKd in assay [4] (setting [35]) was 4.87; in [1] (setting [35]), 7.88; in [25] (setting [35]) it was 5.50; in assay [26] (setting [35]) it was 8.19.

Regarding GPGHEEPVPM, the negative logarithm of the Kd (pKd) in assay [1] (setting [31]) is 5.14.

In [27] (source organism: Mycobacterium tuberculosis variant bovis), GYAGTLQSL had a pKd of 9.05.

On to IPEGRVIDL, for which the pKd in assay [28] (setting [31]) was 6.85.

Turning to IPKIYGGPI, the figures for the pKd in assay [29] (setting [36]) and in assay [28] (setting [36]) were 6.20 and 7.85, respectively.

Regarding IPYDPKFEK, in [29] (setting [34]), the negative logarithm of the Kd (pKd) is 5.66.

For IYDYLRLLY, the pKd is ≤ 4.70 in assay [11] (setting [37]); ≤ 4.70 in [12] (setting [37]); ≤ 4.70 in [13] (setting [37]); ≤ 4.70 in assay [14] (setting [37]); 5.29 in [15] (setting [37]); ≤ 4.70 in assay [17] (setting [37]). For the same sequence, the pKd in assay [18] (setting [37]), in assay [19] (setting [37]), in [20] (setting [37]), in assay [21] (setting [37]), in assay [22] (source organism: Clostridium botulinum NCTC 2916) and in [24] (setting [37]) was ≤ 4.70 in each case.

With KLSHSDYEY, the pKd in [3] (setting [38]) was 7.65; in [4] (setting [38]) it was 5.59; in assay [5] (setting [38]), ≤ 4.11; in assay [6] (setting [38]), 5.19; in assay [8] (setting [38]), 5.90; in assay [9] (setting [38]) it was ≤ 4.62.

Consider LALFLAHYI, for which the pKd in [29] (setting [31]) was 6.47.

As for LPVWLAHKVA, the pKd in [1] (setting [31]) was 5.18.

Regarding LRHPGFTVI, the pKd in assay [29] (setting [39]) was ≤ 5.00.

On to MAVFKMSPGY, for which the negative-log Kd (pKd) in [3] (setting [35]) is 6.30; in assay [1] (setting [35]) it was 6.18.

Turning to MILPAALAF, the pKd in assay [1] (setting [40]) was 6.40; in assay [6] (setting [40]), 7.53; in [26] (setting [40]), 8.16.

With MPSVVETLEQ, the pKd in [1] (setting [39]) was 5.21; in assay [25] (setting [39]), 5.92.

In assay [30], NTVKSFLNF showed a pKd of 6.57.

For PPFGDSYII, the pKd is 5.01 in [29] (setting [34]) and 5.76 in [25] (setting [34]).

RYPIDPFLL gave a pKd in assay [27] (source organism: Mammarenavirus lassaense) of 8.25.

Consider SPAATQKAAL, for which the pKd in assay [28] (source organism: Dengue virus 4 Singapore/8976/1995) is 8.44.

Regarding SPGYVLGIFL, the pKd in [28] (setting [35]) was 6.94.

In the case of SPKRLATAIA, the pKd in assay [28] (setting [31]) is 7.47.

Turning to TPNLAERVL, the pKd in [28] (setting [36]) was 6.94.

As for TPQDNQLTYV, the pKd in assay [29] (setting [34]) is 4.79; in assay [28] (setting [34]), 5.88.

As to TPRGAVMDII, the pKd in [29] (setting [41]) is 5.87; in [28] (setting [41]), 8.09.

For the sequence TPRSPSVEV, the pKd is 6.27 in [29] (setting [35]) and 8.59 in assay [28] (setting [35]).

Consider VVISKKDTY, for which the pKd in assay [11] (setting [42]) is ≤ 4.70; in assay [12] (setting [42]), ≤ 4.70; in assay [13] (setting [42]), ≤ 4.70; in [14] (setting [42]), ≤ 4.70; in assay [15] (setting [42]) it was ≤ 4.70; in assay [16] (setting [42]), 5.16. Moreover, the pKd was ≤ 4.70 in assay [17] (setting [42]); ≤ 4.70 in assay [18] (setting [42]); ≤ 4.70 in assay [19] (setting [42]); ≤ 4.70 in assay [20] (setting [42]); 5.26 in assay [21] (setting [42]); ≤ 4.70 in [22] (setting [42]). The pKd in assay [23] (setting [42]) is 5.53; in assay [24] (setting [42]), ≤ 4.70.

Consider YAQMWSLMYF, for which the pKd in [29] (setting [31]) was 4.89; in assay [25] (setting [31]) it was 6.97; in assay [26] (setting [31]), 8.00; in assay [7] (setting [31]) it was 6.23; in assay [10] (setting [31]), 6.61.

In [27] (source organism: Vibrio vulnificus), YFHAELNYL gave a pKd of 8.43.

Turning to YKELCDAVY, the pKd is 5.85 in [3] (setting [32]); 5.39 in assay [4] (setting [32]); ≤ 4.11 in [5] (setting [32]); ≤ 4.11 in assay [6] (setting [32]); ≤ 4.39 in assay [7] (setting [32]); 5.49 in assay [8] (setting [32]). Moreover, the negative logarithm of the Kd (pKd) is ≤ 4.27 in assay [9] (setting [32]) and ≤ 4.11 in [10] (setting [32]).

Consider YPYSDDLTI, for which the pKd in assay [2] (source organism: Escherichia coli K-12) was 6.55.

As usually defined, the pKd is the Kd on a negative log10 scale, so that one unit is a factor of ten.
